Consider one substance from US20220177525A1.

This test concerns the target N-peptide (RABV N protein, residues 363-414, [change]) (RABV).

pKd: −log10 of the molar value.

On to “NiP-CTD (C-terminal domain of the P protein of rabies virus strain Nishigahara, residues 186-297, Cy (from UniProt Q9IPJ8 186-296)”, for which the negative logarithm of the Kd (pKd) – broadly, the Kd on a negative log10 scale, so that one unit is a factor of ten – is 4.06.
